Experimental findings from patent US20240287138A1 (Merck Sharp & Dohme, published 2024) are described below.

Numbered stars: 1 amine (or outer) side, 2 acyl side, 3 side chain; on linkers, the order of the positions; unused ones are H or OH. Bridge positions count the residues as written; N and C are the ends. Square brackets hold non-standard residues; d marks the D form. bhcLeu = (1R,3S)-3-aminocyclopentane-1-carboxylic acid, O=C([C@@H]1CC[C@H](N[*:1])C1)[*:2]; dPro4cPr = (R)-5-Azaspiro[2.4]heptane-6-carboxylic acid, O=C([C@H]1CC2(CC2)CN1[*:1])[*:2]; FX1 = N5-(Pyridin-3-yl)-L-glutamine, O=C(CC[C@H](N[*:1])C(=O)[*:2])Nc1cccnc1; Trp(βS-Me,7-OMe) = COc1cccc2c([C@H](C)[C@H](N)C(=O)O)c[nH]c12; Phe(4-CH2SO3H) = N[C@@H](Cc1ccc(CS(=O)(=O)O)cc1)C(=O)O; Trp(7-Cl) = N[C@@H](Cc1c[nH]c2c(Cl)cccc12)C(=O)O; Phe(4-CONH2) = NC(=O)c1ccc(C[C@H](N)C(=O)O)cc1; Phe(4-COOH) = N[C@@H](Cc1ccc(C(=O)O)cc1)C(=O)O; Trp(7-aza) = N[C@@H](Cc1c[nH]c2ncccc12)C(=O)O; Pip(5R-OH) = O=C(O)[C@@H]1CC[C@@H](O)CN1; Tyr(2-F) = N[C@@H](Cc1ccc(O)cc1F)C(=O)O; AEF = NCCOc1ccc(C[C@H](N)C(=O)O)cc1; Val(3-OH) = CC(C)(O)[C@H](N)C(=O)O; Pip(4-aza) = O=C(O)[C@@H]1CNCCN1; 4Pal = N[C@@H](Cc1ccncc1)C(=O)O; NMeE = CN[C@@H](CCC(=O)O)C(=O)O; NMeS = CN[C@@H](CO)C(=O)O; αMeS = C[C@](N)(CO)C(=O)O; Nle = CCCC[C@H](N)C(=O)O; Pip2c = not defined here; Bhv = not defined here; Sar = CNCC(=O)O

To fix the notation:
B1: SEQ ID NO. 171 (peptide)
peptide: cyclo([bhcLeu][Nle][4Pal][Pip(4-aza)]W[NMeE]N[Phe(4-CH2SO3H)][Trp(7-Cl)][αMeS][Phe(4-COOH)]Y[Sar][Trp(βS-Me,7-OMe)])
SMILES: CCCC[C@@H]1NC(=O)[C@@H]2CC[C@@H](C2)NC(=O)[C@H]([C@@H](C)c2c[nH]c3c(OC)cccc23)NC(=O)CN(C)C(=O)[C@H](Cc2ccc(O)cc2)NC(=O)[C@H](Cc2ccc(C(=O)O)cc2)NC(=O)[C@](C)(CO)NC(=O)[C@H](Cc2c[nH]c3c(Cl)cccc23)NC(=O)[C@H](Cc2ccc(CS(=O)(=O)O)cc2)NC(=O)[C@H](CC(N)=O)NC(=O)[C@H](CCC(=O)O)N(C)C(=O)[C@H](Cc2c[nH]c3ccccc23)NC(=O)[C@@H]2CNCCN2C(=O)[C@H](Cc2ccncc2)NC1=O
B2: SEQ ID NO. 177 (peptide)
peptide: {CH2CO}-[Nle][PyrimAla][Bhv][Trp(7-aza)][NMeE]N[4Pal][Trp(7-Cl)][αMeS][Phe(4-COOH)]Y[Sar][Trp(βS-Me,7-OMe)]C-NH2
modifications: thioether N-14; reading uncertain; also: printed as cyclo(ClAc-Nle-PyrimAla-Bhv-Trp7az-NMeE-N-4Pal-Trp7Cl-aMeS-Phe4COOH-Y-Sar-SbMeW7OMe-C)-NH2
B3: SEQ ID NO. 167 (peptide)
peptide: {CH2CO}-[Nle][4Pal][Pip(4-aza)]W[dPro4cPr]N[4Pal][Trp(7-Cl)][αMeS][Phe(4-COOH)]Y[Sar][Trp(βS-Me,7-OMe)]C-NH2
modifications: thioether N-14
SMILES: CCCC[C@@H]1NC(=O)CSC[C@@H](C(N)=O)NC(=O)[C@H]([C@@H](C)c2c[nH]c3c(OC)cccc23)NC(=O)CN(C)C(=O)[C@H](Cc2ccc(O)cc2)NC(=O)[C@H](Cc2ccc(C(=O)O)cc2)NC(=O)[C@](C)(CO)NC(=O)[C@H](Cc2c[nH]c3c(Cl)cccc23)NC(=O)[C@H](Cc2ccncc2)NC(=O)[C@H](CC(N)=O)NC(=O)[C@H]2CC3(CC3)CN2C(=O)[C@H](Cc2c[nH]c3ccccc23)NC(=O)[C@@H]2CNCCN2C(=O)[C@H](Cc2ccncc2)NC1=O
B4: SEQ ID NO. 166 (peptide)
peptide: cyclo([bhcLeu][FX1][4Pal][NMeS]W[NMeE]N[4Pal][Trp(7-Cl)][αMeS][Phe(4-COOH)]Y[Sar][Trp(βS-Me,7-OMe)])
SMILES: COc1cccc2c([C@H](C)[C@@H]3NC(=O)CN(C)C(=O)[C@H](Cc4ccc(O)cc4)NC(=O)[C@H](Cc4ccc(C(=O)O)cc4)NC(=O)[C@](C)(CO)NC(=O)[C@H](Cc4c[nH]c5c(Cl)cccc45)NC(=O)[C@H](Cc4ccncc4)NC(=O)[C@H](CC(N)=O)NC(=O)[C@H](CCC(=O)O)N(C)C(=O)[C@H](Cc4c[nH]c5ccccc45)NC(=O)[C@H](CO)N(C)C(=O)[C@H](Cc4ccncc4)NC(=O)[C@H](CCC(=O)Nc4cccnc4)NC(=O)[C@@H]4CC[C@@H](C4)NC3=O)c[nH]c12
B5: SEQ ID NO. 158 (peptide)
peptide: {CH2CO}-[Nle][4Pal][Pip2c][Trp(7-aza)][NMeE]N[4Pal][Trp(7-Cl)][αMeS][Phe(4-COOH)][TyrOCF3][Sar][Trp(βS-Me,7-OMe)]C-NH2
modifications: thioether N-14; reading uncertain; also: printed as cyclo(ClAc-Nle-4Pal-Pip2c-Trp7az-NMeE-N-4Pal-Trp7Cl-aMeS-Phe4COOH-TyrOCF3-Sar-SbMeW7OMe-C)-NH2
B6: SEQ ID NO. 175 (peptide)
peptide: cyclo([bhcLeu][Nle][4Pal][Pip(4-aza)]W[NMeE]N[4Pal][Trp(7-Cl)][αMeS][Phe(4-COOH)][Tyr(2-F)][Sar][Trp(βS-Me,7-OMe)])
SMILES: CCCC[C@@H]1NC(=O)[C@@H]2CC[C@@H](C2)NC(=O)[C@H]([C@@H](C)c2c[nH]c3c(OC)cccc23)NC(=O)CN(C)C(=O)[C@H](Cc2ccc(O)cc2F)NC(=O)[C@H](Cc2ccc(C(=O)O)cc2)NC(=O)[C@](C)(CO)NC(=O)[C@H](Cc2c[nH]c3c(Cl)cccc23)NC(=O)[C@H](Cc2ccncc2)NC(=O)[C@H](CC(N)=O)NC(=O)[C@H](CCC(=O)O)N(C)C(=O)[C@H](Cc2c[nH]c3ccccc23)NC(=O)[C@@H]2CNCCN2C(=O)[C@H](Cc2ccncc2)NC1=O
B7: SEQ ID NO. 145 (peptide)
peptide: cyclo([bhcLeu][Nle][4Pal][Pip(5R-OH)]W[NMeE]N[AEF][Trp(7-Cl)][αMeS][Phe(4-CONH2)]Y[Sar][Trp(βS-Me,7-OMe)])
SMILES: CCCC[C@@H]1NC(=O)[C@@H]2CC[C@@H](C2)NC(=O)[C@H]([C@@H](C)c2c[nH]c3c(OC)cccc23)NC(=O)CN(C)C(=O)[C@H](Cc2ccc(O)cc2)NC(=O)[C@H](Cc2ccc(C(N)=O)cc2)NC(=O)[C@](C)(CO)NC(=O)[C@H](Cc2c[nH]c3c(Cl)cccc23)NC(=O)[C@H](Cc2ccc(OCCN)cc2)NC(=O)[C@H](CC(N)=O)NC(=O)[C@H](CCC(=O)O)N(C)C(=O)[C@H](Cc2c[nH]c3ccccc23)NC(=O)[C@@H]2CC[C@@H](O)CN2C(=O)[C@H](Cc2ccncc2)NC1=O
B8: SEQ ID NO. 178 (peptide)
peptide: cyclo([bhcLeu][Nle][4Pal][Pip(4-aza)]W[NMeE]N[4Pal][Trp(7-Cl)][αMeS][Phe(4-COOH)]H[Sar][Trp(βS-Me,7-OMe)])
SMILES: CCCC[C@@H]1NC(=O)[C@@H]2CC[C@@H](C2)NC(=O)[C@H]([C@@H](C)c2c[nH]c3c(OC)cccc23)NC(=O)CN(C)C(=O)[C@H](Cc2c[nH]cn2)NC(=O)[C@H](Cc2ccc(C(=O)O)cc2)NC(=O)[C@](C)(CO)NC(=O)[C@H](Cc2c[nH]c3c(Cl)cccc23)NC(=O)[C@H](Cc2ccncc2)NC(=O)[C@H](CC(N)=O)NC(=O)[C@H](CCC(=O)O)N(C)C(=O)[C@H](Cc2c[nH]c3ccccc23)NC(=O)[C@@H]2CNCCN2C(=O)[C@H](Cc2ccncc2)NC1=O
B9: SEQ ID NO. 164 (peptide)
peptide: {CH2CO}-[Nle][Phe(4-CONH2)][Val(3-OH)][Trp(7-aza)][NMeE]N[4Pal][Trp(7-Cl)][αMeS][Phe(4-COOH)]Y[Sar][Trp(βS-Me,7-OMe)]C-NH2
modifications: thioether N-14
SMILES: CCCC[C@@H]1NC(=O)CSC[C@@H](C(N)=O)NC(=O)[C@H]([C@@H](C)c2c[nH]c3c(OC)cccc23)NC(=O)CN(C)C(=O)[C@H](Cc2ccc(O)cc2)NC(=O)[C@H](Cc2ccc(C(=O)O)cc2)NC(=O)[C@](C)(CO)NC(=O)[C@H](Cc2c[nH]c3c(Cl)cccc23)NC(=O)[C@H](Cc2ccncc2)NC(=O)[C@H](CC(N)=O)NC(=O)[C@H](CCC(=O)O)N(C)C(=O)[C@H](Cc2c[nH]c3ncccc23)NC(=O)[C@H](C(C)(C)O)NC(=O)[C@H](Cc2ccc(C(N)=O)cc2)NC1=O

For this experiment, the target named is T1, TNFR1 on THP-1 Lucia NF-κB cells (UniProt P19438 30-455, limits assumed).
T1 sequence (looked up): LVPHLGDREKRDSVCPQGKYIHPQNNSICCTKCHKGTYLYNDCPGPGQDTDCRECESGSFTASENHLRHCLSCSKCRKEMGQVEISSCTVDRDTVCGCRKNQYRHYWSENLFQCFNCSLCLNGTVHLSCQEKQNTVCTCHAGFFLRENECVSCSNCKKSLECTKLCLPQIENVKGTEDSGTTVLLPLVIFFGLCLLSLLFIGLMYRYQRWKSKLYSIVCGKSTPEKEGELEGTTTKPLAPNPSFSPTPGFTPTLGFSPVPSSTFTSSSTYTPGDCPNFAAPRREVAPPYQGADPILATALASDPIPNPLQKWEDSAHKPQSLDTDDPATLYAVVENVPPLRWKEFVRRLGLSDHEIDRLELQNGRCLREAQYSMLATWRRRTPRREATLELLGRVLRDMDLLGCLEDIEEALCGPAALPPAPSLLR
In words: cell-based or functional assay.
In the case of B1, the “THP-1 IC50” value stood at 0.9 nM.
Next, B2: 3.3 nM.
As to B3, the “THP-1 IC50” value came out at 2.6 nM.
As to B4, the “THP-1 IC50” value was determined as 2.7 nM.
Next, B5: 5.3 nM.
Next, B6: 0.9 nM; B7: 0.8 nM.
In the case of B8, the “THP-1 IC50” value came out at 3.3 nM.
To B9 belongs 3.6 nM.
